Data taken from the DeepSol protein solubility set.

assay: soluble on expression in E. coli; label from the status in PepcDB or PDB records

Row | Sequence | soluble on expression in E. coli
1 | MSLKIAVVQFPGSNCERETMLAVQRAGMTPVEFLWNDSSQKLREMDGYIIIGGFSYEDRSRAGIIAALDPVMKEIKLQSELGKPVLGICNGAQILVETGLVPGLKNYQIGMALTENKRIQDGKILGTGFYNSWIHMRTGDRVRQNAFTRYLSKDSVLSIPAAHAEGRFVMPVKLLQEIEEEGLNAFQYCDAQGNRDDNFPVNPNGSLRNIAAIINKAGNVMAIMPHPERTFAGDPIFHSMKEYIKEKKTFKQQTLSYQPEPVKIIPYDKKDNAHELIVKLIITDNAALTVQNTLRQLGIPVTVNRMMYWHVDTNFPETIEKIKQTGVLYNDRKEYLVTSEHIFSSAAKAFLVKSKDDMIGQQKLQMLRDHFSIDGVDAIHHGVLWMFSSENVKIQELAESILATNIIFNPNAHICYEYQCPEGHHHHHH | soluble
2 | MDKDCEMKRTTLDSPLGKLELSGCEQGLHEIKLLGKGTSAADAVEVPAPAAVLGGPEPLMQCTAWLNAYFHQPEAIEEFPVPALHHPVFQQESFTRQVLWKLLKVVKFGEVISYQQLAALAGNPKAARAVGGAMRGNPVPILIPCHRVVCSSGAVGNYSGGLAVKEWLLAHEGHRLGKPGLGGSSGLAGAWLKGAGATSGSPPAGRN | soluble
3 | SQRRGQLSRRLVNSADRDPSDENSLSRAPAPACTSRGTHVVETTSLKRHSKVLRSQDASGTAESVNSQTPDDEVDHTLWTLVREVSDAEAAFWALRNDSRLLGFVLRSQLLALVHDDSSVTDFLEAAQQPTDVGDVQAEFILCWVPVPGGPAILWRADYQRLIEEQVARRLSELEDPARKAALWGTTREQVERDTHIRAADGSCWLRTLPCPPSVIRALTQGQKALVQQVKRMGRYGRLPLHRAELLRLSRTCFSARFHILDAVGCGTLALDAQNTLSKEPYLCLPEVRTTNIVDSGEIGF | soluble
4 | GMNRLRTSFQQTTGQISGHGKRNVGVLKTAFAAVADEMASDQYGTGAIIEPFEQKFADVLGMDDAVFFPSGTMAQQVALRIWSDETDNRTVAYHPLCHLEIHEQDGLKELHPIETILVGAADRLMTLDEIKALPDIACLLLELPQREIGGVAPAFSELETISRYCRERGIRLHLDGARLFEMLPYYEKTAAEIAGLFDSIYISFYKGLGGIAGAILAGPAAFCQTARIWKRRYGGDLISLYPYIVSADYYYELRKDRMGQYYEQAKQLAEQFNALPGVHTTPEVPVSNMFHLHFDGQAADISPKLEQVQEETGLGFVGYLVDKDGYCSTEISVGDAYGELDQQTRDAGFARLRQAFS | soluble
5 | MSLAAIDKTTVATVNGEKITLGEVDSHLKGVFAQMKSQYGDKYMDDPQVAQQILQQRQSVVQGLVTDKVLGIEADKLGIKPSEEEIKKKVDEQFENIKKGMGDNFDKALEAEGYTEDTFKDVIKNQVINQAVQDYIIKDVKVTDEDAQKYYDENKQQFVAKDSGVLTKHLLFENEEEAQKAYDEIQSGKTTFNDLFTKYENNKSENKKPIAENLGVVPAENSGLVQEFVDGLKPLKEGEISKPIKTQFGYHIIQAGATYEKGAQLPFDDVKSQIIQILKQQKDSEKFKADMDQWKKDLNVKVYDDKLQEGLKISEGHHHHHH | soluble
6 | MMTKYGVVGTGYFGAELARFMSKVEGAKITAIYDPVNAAPIAKELNCVATATMEALCSHPDVDCVIIASPNYLHKAPVIAAAKAGKHVFCEKPIALNYQDCKDMVDACKEAGVTFMAGHVMNFFHGVRHAKALIKAGEIGEVTQVHTKRNGFEDVQDEISWKKIRAKSGGHLYHHIHELDCTLFIMDETPSLVSMAAGNVAHKGEKFGDEDDVVLITLEFESGRFATLQWGSSFHYPEHYVLIEGTTGAILIDMQNTAGYLIKAGKKTHFLVHESQAEDDDRRNGNISSEMDGAIAYGKPGKRTPMWLSSIMKLEMQYLHDVINGLEPGEEFAKLLTGEAATNAIATADAATLSSNEGRKVKLTEILG | not soluble
7 | MKYDLKYLSVPLPEEIQRVKEFGDFASADIAIDFWLTKELPQALKERLIIEKDVIKMMRMNEYPHSFAKADQMMRDTFQDYQTEELIRLKETGLVDWVYIDGEPYFQLRFLANLIKTNAAYVARLREAESNQLEILRKKELKENIEQMQKNGGRKVRTTIKATIQVKKEFERPGERVRVHLPLPKACQQQSEIEILATSPEATYIAAEDAPQRTLCFETILKENQTFTVEYCYVNRMVYQQLEENNVDKMQPSFDLEEQLPHIRFTPYLRNLADEIVGDESNPLKKARLIYDFVTTKIHYSFMREYFTISNISEYAATNLKGDCGVQAILFITLCRIAGIPAKWQSGLYVSTHYTGCHDWAQFYIKPYGWLFADLSFGGGAYRDGDRQRWNHYFGNLDVFRMVANSEIQADFQPAKMQLRADPIDNQRGEFEYENEGLPYACLIVSQERLSMEELPFD | not soluble
8 | MAIPKLQAYALPESHDIPQNKVDWAFEPQRAALLIHDMQDYFVSFWGENCPMMEQVIANIAALRDYCKQHNIPVYYTAQPKEQSDEDRALLNDMWGPGLTRSPEQQKVVDRLTPDADDTVLVKWRYSAFHRSPLEQMLKESGRNQLIITGVYAHIGCMTTATDAFMRDIKPFMVADALADFSRDEHLMSLKYVAGRSGRVVMTEELLPAPIPASKAALREVILPLLDESDEPFDDDNLIDYGLDSVRMMALAARWRKVHGDIDFVMLAKNPTIDAWWKLLSREVK | not soluble
9 | LYLAGIGQYAALLEAGFARARSAEETVRLLVTSYIDWVVANPDWARFILHSRGRVEAGELGERLRADNQAHFARIHAALAGYRAEGLFREMPDDCFASVVIGPAHDLARQWLAGRTRVALADCRELLAQVAWDSVRAA | soluble
10 | MPLSPTSVPLTVKEFEKALCGICGGCSSACGYIAYLKQDELVDLYGHPHDPNGIGSFCTKGITYIQEIPKNPLRITKPLLREGNNFREVEFQETKKLIKENLKGKVAFFLDRFAGIEEYLIARSLTEEVFSDSLYLPFKQTSVRAQDWVDKKALFIFEAEPTFSEVMLTRWIVDAFEKDAYIFTAGSRYTTVFQKSKEKVLTTPEKTTEILQALSEGRFEGKAQKFLEFFGKESVVIVGDTLLRSPFRGKVLKTLKEISEKYGADYSIVGNITPFPVKSLKEFLERLGEFDTLVLFGNPFIYLSDEQIQKLKDKFVINFAYFPTITANHSTLIIPRTTFAEREFIVKGFGFLAHSPQVLNAPFPQPYEYFESSFDVEDFLKECGVKLEELKEKEGGVDISMKDITEVDINEEDRSESGELWFICDNTLAEELGHWNPWTHALEREQFAYVNQKTKERLNIGNLIEINGVKLKVKVNNNLADNVVFVPNSFEEFQPFDPGIRVGRLMKKPFFKLEVLNLNV | not soluble
11 | GPGSMADYLREKVLESLGISFRETQNCRRWITEVTNMIWEAQPAELRTALCWTTPLGLVVRQPYKVRKEITLFTPHGCSRIPGDAFSAASRKQLTAIAPNLIHSLDATHLAMTAIEMQNLGLSMMAVHDSYWTYACDLPVLSKVLRQQFVTLYSKYDPLWELKEQWEEAYFMDLRRHGTLLPDPPKRGDLDLSVVLDSPYFFS | not soluble
12 | MATNLKSIAKLQKPIQYDKVIEVDRIFADPAFIEQHRQRILASFKDAKESALYHELTHIVIKDNLFSAAMNEIVSYFEFQINPEELKNVVEGLKRDVVKDADEKTIQSIAEKIIKKALVFNFLQKEWKVEVSDDIVKRVISLYYEKTNQNVREYLDDKQKFEGIRTALIEERMVLETINHFKFHFNLTGQLPS | soluble
13 | MSLFHREDFSKALLKKALQPGMRVMDIGCGSGELTRLAADIVGKEGDVVGIDINEQLLWQARHDNGYANVSYQNADLAALSSFETKSFDAIIGRRVLMYQKDPKKVIESLTPLLKPNGFYVFQESDAMCLELAKPSFVNMNKIQSLIWQTVEKEGGHIHIGSQLEQLMLEAGLIVDHFVSENVIQTSQTGTDLSWLLNIMKERIQKYSDLQGLEDVNLQKELEENNDHFIRDCQFGIISHRVDEGHHHHHH | soluble
14 | MKGPNLTEISKKITDSNAVLLAVKEVEALLSSIDEIAAKAIGKKIHQNNGLDTENNHNGSLLAGAYAISTLIKQKLDGLKNEGLKEKIDAAKKCSETFTNKLKEKHTDLGKEGVTDADAKEAILKTNGTKTKGAEELGKLFESVEVLSKAAKEMLANSVKELTSPVVAESPKKP | soluble
15 | VTVHSTPVRRSSGPAPQSLLSARRVSALPTPASRRCSGLPPMTPKTMPRAVGSPLCVPARRRSSEPRKNSAMRTEPTRESNRKTDSRLVDVSPDRGSPPSRVPQALNFSPEESDSTFSKSTATEVAREEAKPGGDAAPSEALLVDIKLEPLAVTPDAASQPLIDLPLIDFCDTPEAHVAVGSESRPLIDLMTNTPDMNKNVAKPSPVVGQLIDLSSPLIQLSPEADKENVDSPLLKF | not soluble
